Assay results reported in patent publication US20100310573A1.
pKd: −log10 of the molar value.

Target: recombinant human CD4 (catalogue number: 514-CD/CF, manufactured by R&D Systems) (human) (UniProt P01730)
Assay: SPR, Biacore T100; antibody captured on anti-mouse IgG chip, recombinant human CD4 flowed; 1:1 binding model

| pKd | koff [s⁻¹] | kon [M⁻¹ s⁻¹] | Substance |
| --- | --- | --- | --- |
| 9.45 | 0.000156 | 444000 | 13B8.2 (Beckman Coulter), commercially available anti-human CD4 mouse antibody |
| 9.93 | 0.000129 | 1.1e+06 | Leu-3a (BD Biosciences), commercially available anti-human CD4 mouse antibody |
| 8.54 | 0.00306 | 1.05e+06 | anti-CD4 mouse monoclonal antibody OKT4 (manufactured by BioLegend) |
